The text below walks through data of patent publication CN106188281A (INST PASTEUR OF SHANGHAI CHINESE ACAD OF SCIENCES, dated 2016).

As usually defined, the EC50 is the concentration needed to bring the measured effect to its halfway point.

The target of assay [1] is T1, 诺如病毒GII.4病毒样颗粒 (GII.4 VP1 virus-like particle) (诺如病毒GII.4 (norovirus GII.4), UniProt P54635 3-539).
T1 construct: also called GII.4VLP; 天然结构的GII.4病毒样颗粒
T1 chain: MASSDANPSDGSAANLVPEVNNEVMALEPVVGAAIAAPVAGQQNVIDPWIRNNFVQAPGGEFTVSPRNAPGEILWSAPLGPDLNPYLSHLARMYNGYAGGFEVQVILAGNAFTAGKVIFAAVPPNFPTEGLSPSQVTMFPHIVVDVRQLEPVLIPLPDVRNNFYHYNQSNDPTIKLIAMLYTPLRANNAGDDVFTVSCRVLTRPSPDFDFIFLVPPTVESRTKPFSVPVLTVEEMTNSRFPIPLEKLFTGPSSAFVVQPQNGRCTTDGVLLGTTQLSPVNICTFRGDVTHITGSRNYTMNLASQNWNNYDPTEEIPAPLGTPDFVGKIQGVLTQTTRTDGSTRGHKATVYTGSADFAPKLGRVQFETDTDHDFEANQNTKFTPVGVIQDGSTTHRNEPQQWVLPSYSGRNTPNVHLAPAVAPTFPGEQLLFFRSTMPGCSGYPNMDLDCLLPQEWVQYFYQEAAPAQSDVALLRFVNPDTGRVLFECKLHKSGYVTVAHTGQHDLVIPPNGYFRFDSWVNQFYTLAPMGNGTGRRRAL
As to the kind of experiment: blocking ELISA (surrogate neutralisation): mAb titrated against 0.5 ug/ml GII.4 VLP, binding of VLP to coated PGM read. A general note: ELISA stands for enzyme-linked immunosorbent assay.

The target of assay [2] is T2, 诺如病毒GI.1病毒样颗粒 (GI.1 VP1 virus-like particle) (诺如病毒GI.1 (norovirus GI.1), UniProt Q83884 3-530).
T2 construct: VLP assembled from VP1
T2 sequence: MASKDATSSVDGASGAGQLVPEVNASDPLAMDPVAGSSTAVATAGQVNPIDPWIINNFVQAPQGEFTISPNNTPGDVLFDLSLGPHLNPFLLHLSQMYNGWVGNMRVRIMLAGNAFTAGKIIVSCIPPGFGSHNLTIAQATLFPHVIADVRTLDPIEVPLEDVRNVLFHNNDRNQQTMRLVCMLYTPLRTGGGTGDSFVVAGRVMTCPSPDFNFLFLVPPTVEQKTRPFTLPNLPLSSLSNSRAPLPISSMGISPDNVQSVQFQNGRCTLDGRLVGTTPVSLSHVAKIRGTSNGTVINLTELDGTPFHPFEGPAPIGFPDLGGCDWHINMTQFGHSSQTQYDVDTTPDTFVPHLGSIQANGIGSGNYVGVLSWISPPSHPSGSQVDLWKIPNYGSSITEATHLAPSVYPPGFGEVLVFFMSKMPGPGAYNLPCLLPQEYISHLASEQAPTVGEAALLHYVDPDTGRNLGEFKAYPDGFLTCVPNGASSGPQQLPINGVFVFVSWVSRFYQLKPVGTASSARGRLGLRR
As to the kind of experiment: ELISA, 100 ng GI.1 VLP coated per well.

The target of assay [3] is T1, 诺如病毒GII.4病毒样颗粒 (GII.4 VP1 virus-like …). The assay is described as follows: blocking ELISA (surrogate neutralisation), VLP to PGM; reference D11.
Assay [4] shares this target. As to the kind of experiment: blocking ELISA (surrogate neutralisation), VLP to PGM; reference G9.

B1: 8E1单抗 (抗诺如病毒GII.4型鼠源单克隆抗体8E1) (antibody, V domains shown)
VH: EIQLQQSGPELMKPGASVKISCKASGYSFTDYYMHWVKQSHGKSLEWIGYIDPFNGDTGYNQKFKVRATLTVDESSTTAYMHLSSLTSDDSAVYYCARDDWGSPFSYWGQGTLVTVSA
VL: DIQMTQSPSSLSASLGESVSLTCRASHDIGSNLDWLQQEPDGTIKRLIYATSTLDSGVPKRFSGSRSGSDYSLTISSLESEDFVEYYCLQYASSPRTFGGGTKLEIKR
notes: Mouse IgG1, kappa; also called m8E1
In turn, B1 had a concentration for a half-maximal effect (EC50) in assay [1] of 0.0436 µg/mL. Also, the binding result in assay [2] is “no binding (tested: 5ug/ml)”. Besides, the “fold of neutralising (blocking) activity against D11” value in assay [3] is over 2 fold. For the same molecule, the “fold of neutralising (blocking) activity against G9” value in assay [4] was about 16 fold.
